# Measurements as given in patent US20230008694.
# Legend:
# Experiment in all cases: cell_activity
# [1] = test system: GmFAD3_T08-R1 half-TALEN (synthetic (TAL effector-FokI))
# [2] = test system: GmFAD3_T09-R1 half-TALEN (synthetic (TAL effector-FokI))
# [3] = test system: GmFAD2_T04-R1 half-TALEN (synthetic (TAL effector-FokI)); settings: pair with T04-L1 at FAD2-1A (FAD2-1B 3.54)
# [4] = test system: GmFAD2_T02-L1 half-TALEN (synthetic (TAL effector-FokI)); settings: pair with T02-R1 at FAD2-1A (FAD2-1B 1.19)
# [5] = test system: GmFAD2_T03-L1 half-TALEN (synthetic (TAL effector-FokI)); settings: pair with T03-R1 at FAD2-1A (FAD2-1B 3.94)
# [6] = test system: GmFAD2_T01-L1 half-TALEN (synthetic (TAL effector-FokI)); settings: pair with T01-R1 at FAD2-1A (FAD2-1B 3.41); soybean protoplasts
# [7] = test system: GmFAD2_T03-R1 half-TALEN (synthetic (TAL effector-FokI)); settings: pair with T03-L1 at FAD2-1A (FAD2-1B 3.94)
# [8] = test system: GmFAD2_T02-R1 half-TALEN (synthetic (TAL effector-FokI)); settings: pair with T02-L1 at FAD2-1A (FAD2-1B 1.19)
# [9] = test system: GmFAD3_T08-L1 half-TALEN (synthetic (TAL effector-FokI))
# [10] = test system: GmFAD3_T09-L1 half-TALEN (synthetic (TAL effector-FokI))
# [11] = test system: GmFAD2_T01-R1 half-TALEN (synthetic (TAL effector-FokI)); settings: pair with T01-L1 at FAD2-1A (FAD2-1B 3.41)
# [12] = test system: GmFAD2_T04-L1 half-TALEN (synthetic (TAL effector-FokI)); settings: pair with T04-R1 at FAD2-1A (FAD2-1B 3.54)
sequence,measurement,setting,value
CACATTGAGAAGGATGA (double strand) [GmFAD3_T08-R1 half-site],activity,"[1]; pair with T08-L1 at FAD3A (FAD3B 14.57), with T09-L1 12.37 at FAD3A, 11.17 at FAD3B",22.9 % NHEJ
same,activity,"[2]; pair with T08-L1 at FAD3A (FAD3B 1.80), mismatched right half-site, with T09-L1 6.46 (FAD3B 3.61)",6.56 % NHEJ
CATGTTGAGAAGGATGA (double strand) [GmFAD3_T09-R1 half-site],activity,"[1]; pair with T09-L1 at FAD3C, mismatched right half-site, with T08-L1 3.59",5.98 % NHEJ
same,activity,"[2]; pair with T09-L1 at FAD3C, with T08-L1 7.60",11.3 % NHEJ
TAGGTGGTGGCAATGTA (double strand) [GmFAD2_T04-R1 half-site],activity,[3],4.67 % NHEJ
TATGTTGTTTATGACCT (double strand) [GmFAD2_T02-L1 half-site],activity,[4],0.91 % NHEJ
TCCTATGTTGTTTATGA (double strand) [GmFAD2_T03-L1 half-site],activity,[5],4.91 % NHEJ
TCTCAAGGGTTCCAAAC (double strand) [GmFAD2_T01-L1 half-site],activity,[6],3.95 % NHEJ
TGGCAATGTAGAAAATG (double strand) [GmFAD2_T03-R1 half-site],activity,[7],4.91 % NHEJ
TGGTGGCAATGTAGAAA (double strand) [GmFAD2_T02-R1 half-site],activity,[8],0.91 % NHEJ
TTAGCCACAGAACTCAC (double strand) [GmFAD3_T08-L1 half-site],activity,"[9]; pair with T08-R1 at FAD3A (FAD3B 14.57), soybean protoplasts 48 h",22.9 % NHEJ
same,activity,"[10]; pair with T08-R1 at FAD3A (FAD3B 11.17), mismatched left half-site",12.4 % NHEJ
TTAGCCACAGGACTCAC (double strand) [GmFAD3_T09-L1 half-site],activity,"[9]; pair with T09-R1 at FAD3C, mismatched left half-site, with T08-R1 3.59",7.6 % NHEJ
same,activity,"[10]; pair with T09-R1 at FAD3C, multiplex T09-L1/T08-R1/T09-R1 21.42 (Table 2)",11.3 % NHEJ
TTGAGTTGGCCAACAGT (double strand) [GmFAD2_T01-R1 half-site],activity,[11],3.95 % NHEJ
TTGTTTATGACCTTTCA (double strand) [GmFAD2_T04-L1 half-site],activity,[12],4.67 % NHEJ
